Laboratory results reported in the nanobody polyreactivity screen of Harvey et al. (2022).

Test: yeast display, Sf9 membrane polyspecificity reagent, FACS + sequencing; frameworks hold sequencing errors
In short: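 Genes from sorted yeast were amplified by colony PCR, read by MiSeq 2 × 250 sequencing and filtered on CDR length. These cells carried a synthetic nanobody library in Saccharomyces cerevisiae BJ5465 and were sorted by FACS into low and high (top ~1%) gates on anti-HA and streptavidin fluorescence. Polyreactivity is labelled according to the gate of origin.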

Row | Sequence | polyreactivity (PSR sort gate)
1 | QVQLVESGGGLVQAGGSLRLSCAASGFIFKSYAMGWYRQAPGKERELVAAITSGGSTYYADSVKGRFTISRDNAKNTVYLQMNSLKPEDTAVYYCATRYRFGWGLSWYDYWGQGTQVTVSS | high polyreactivity
2 | QVQLVESGGGLVQAGGSLRLSCAASGFIFLGNAMGWYRQAPGKERELVAAISSGGSTYADSVKGRFTISRDNAKNTVYLQMNSLKPEDTAVNYCAVDRAFRAQNYHEYDYWGQGTQVTVSS | low polyreactivity
3 | QVQLVESGGGLVQAGGSLRLSCAASGFIFLINAMGWYRQAPGKERELVAGITSGGGNTYYADSVKGRFTISRDNAKNTVYLQMYSLKPEDTAVFYCAARLFDYWGQGTQVTVSS | low polyreactivity
4 | QVQLVESGGGLVQAGGSLRLSCAASGFIFLQNAMGWYRQAPGKERELVAVIRLSSCSTYYADSVKGRFTISRDNAKNTVYFEMNSLKPEDTAVYYCAARGYYSGQTTIGMDYWGQGTQVTVSS | low polyreactivity
5 | QVQLVESGGGLVQAGGSLRLSCAASGFIFLSNGMGWYRPAPGKERELVAAITSGGNTNYADSVTGRFTISRDNAKTTVYLQMNSLKPEDTAVYYCAAYWIFITYFGYYSEYAYWGQGTQVTVSS | low polyreactivity
6 | QVQLVESGGGLVQAGGSLRLSCAASGFIFLVNAMGWYRHAPGKERELVAAITTSGASTYYADSVKGRFTISRDNAKNTVYLQMNSLKPEDTAVYYCAAGSYARPEYGYWGQGTQVTVSS | low polyreactivity
7 | QVQLVESGGGLVQAGGSLRLSCAASGFIFLWYAMGWYRQAPGKERELVAAISSGGGRTHYADSVKGRFTISRDNAKNTVYLQMNSLKPEDTAVYYCAAALRGQASRFDYWGQGTKVTVSS | high polyreactivity
8 | QVQLVESGGGLVQAGGSLRLSCAASGFIFLYYAMGWYRQAPGKERELVAAISRSGGRTYYADSVKGRFTISRDNAKNTVYLQMNSLKPEDTAVYYCAADRLGSISGYDYWGQGTQVTVSS | high polyreactivity
9 | QVQLVESGGGLVQAGGSLRLSCAASGFIFNGNAMGWYIQAPGKERELVVAISKSGGRTYYADSVKGRFTISRDNAKYTVYLQMNSLKPEDTAVYDCARRTYTRMYWGQGTQVTVSS | high polyreactivity
10 | QVQLVESGGGLVQAGGSLRLSCAASGFIFNHYAMGWYRQAPGKEREFVAAISWSGGSTYYADSVKGRFTISRDNAKNTVYLQMNSLKPEDTAVYYCAASYNCLWHGDYDYWGQGTQVTVSS | low polyreactivity
11 | QVQLVESGGGLVQAGGSLRLSCAASGFIFNIYAMGWYRQAPGKERELVAAITFSGGSTYYADSVKGRFTISRDNAKNTVYLQKNSLKPEDTAVYYCAADYLSEYTTYDYWGQGTQVTVSS | low polyreactivity
12 | QVQLVESGGGLVQAGGSLRLSCAASGFIFNKYAMGWYRQAPGKERELVATIRRDGSTNYADSVKGRFTISRDNAKNTVYLQMNSLIPEDTAVYYCAVRPYYWSRDYYWGQGTQVTVSS | high polyreactivity
13 | QVQLVESGGGLVQAGGSLRLSCAASGFIFNRYAMGWYRQAPGKERELVATITRRGGRTYFADSVKGRFTISRDNAKNTVYLQMNSLKPEDTAVYYCNADPNVPVETFDYWGQGTQVTVSS | high polyreactivity
14 | QVQLVESGGGLVQAGGSLRLSCAASGFIFNRYVMGWYRQAPGKERELVAVISRGGSTSYADSVKGRFTISRDNAKNTVYLQMNSLKPEDTAVYYCNAVHSRVYYSLGYGYWGLGTQVTVSS | high polyreactivity
15 | QVQLVESGGGLVQAGGSLRLSCAASGFIFPAYTMGWYRQAPGKERELVAAITWSGGSTYYADSVKGRFTISRDNAKNTVYLQMKSLKPEDTAVYYCAAYVSRKYRKGPRFAYDYWGQGTQVTVSS | high polyreactivity
16 | QVQLVESGGGLVQAGGSLRLSCAASGFIFPDDAMGWYSQAPGKERELVASINRSGGSTNYADSVKGRFTISRDHAKNTDYLQMNSLKPEDTAVYYCAPDFSFLGNASARLDYDYWGQGTQVTGSS | low polyreactivity
17 | QVQLVESGGGLVQAGGSLRLSCAASGFIFPEYAMGWYRQAPGKERELVAAINWSGGNTYYADSVKGRFTISRDNAKNTVYLQMNSLKPEDTAVYYCNVDEWVTDDDYWGQGTEVTVSS | low polyreactivity
18 | QVQLVESGGGLVQAGGSLRLSCAASGFIFPEYAMGWYRQAPGKERELVAAINWSGGNTYYADSVKGSFTISRDNAKNTVYLQMNSLKPEDTAVYYCNVDDWVTDDDYWGQGTQVTVSS | low polyreactivity
19 | QVQLVESGGGLVQAGGSLRLSCAASGFIFPFYAMGWYRQAPGKEREFVAAITLSSGSTYYADSVKGRFTISRDNAKNTVFLQMNSLKPEDTAVYYCNADYNVYLYYGYDYWGQGTHVTVSS | low polyreactivity
20 | QVQLVESGGGLVQAGGSLRLSCAASGFIFPFYAMGWYRQAPGKERELVAVIRTSSDRTYYADSVKGRFTISRDNAKNTVYLQMNSLKPEDTAVYYCAAETYRLFDYWGQGTQVTVSS | low polyreactivity
21 | QVQLVESGGGLVQAGGSLRLSCAASGFIFPGYAMGWYRQAPGKERELVAAISRSGGITYYADSVKGRFTISRDNAKNTVYLQMNSLKPEDTAVYYCAARDRVRDDYWGQGTQVTVSS | high polyreactivity
22 | QVQLVESGGGLVQAGGSLRLSCAASGFIFPLYTMGWYRQAPGKERELVAAISVTGGSTYYADSVKGRFTISRDNAKNTVYLQMNSLKPEDTAVYYCNAYLFFLNRVWSFDYWGQGTQVTVSS | high polyreactivity

Row | Sequence | polyreactivity (PSR sort gate)
23 | QVQLVESGGGLVQAGGSLRLSCAASGFIFPRNVMGWYRQAPGKERELVAAISRSGGSTYYADSVKGRFTISPDNVKNTVFLQMNSLIPEDTAVYYFAKRTFYNGEYWGQGTQVTVSS | low polyreactivity
24 | QVQLVESGGGLVQAGGSLRLSCAASGFIFPRYVMGWYRQAPGKERELVAAITQGGGSTYYADSVKGRFTISRDNAKNTVYLQMNSLKPEDTAVYYCAAEVWRSYGYWGQGTQVTVSS | low polyreactivity
25 | QVQLVESGGGLVQAGGSLRLSCAASGFIFPSYAMGWYRQAPGKERELVAAITRSSGSTYYADSVKGRFTISRDNAKNTVYLEMNCLKAVDTAVYYCNAFDYSYYRSPEMDYWGQGTQVTVSS | high polyreactivity
26 | QVQLVESGGGLVQAGGSLRLSCAASGFIFPTYAMGWYRQAPGKERELVAAISRSGGRTYYADSVKGRFTISRDNAKNTVYLQKNSLKPEDTAVYYCAAAYLRRVAYDYWGQGTQVTVSS | high polyreactivity
27 | QVQLVESGGGLVQAGGSLRLSCAASGFIFPVNAMGWYRQAAGKERELVAAITSSGGDTYYADSVKGRFTISRDNAKNTVYLQMNSLKPEDTAVYYCAAEYTQEQEDYDYWGQGTQLTVSS | low polyreactivity
28 | QVQLVESGGGLVQAGGSLRLSCAASGFIFPWYAMGWYRLAPGKERELVAIISWDTGSTYYADSVKGRFTISRDNAKNTVYLQMNSLKPEDTAVYYCVAYVCSTYSAPEYYWGQGTQVTVSS | low polyreactivity
29 | QVQLVESGGGLVQAGGSLRLSCAASGFIFPWYSMVWSRQAPGKERELVAAISRGGRTNYADSVKGRFTISRDNAKNTVYLQMNSLIPEDTAVYYCAKKYYLSGSRADDSWGQGTQVTVSS | high polyreactivity
30 | QVQLVESGGGLVQAGGSLRLSCAASGFIFPYYALGWYRQAPGKEREFVAAISKTAGRTYYADSVKGRFTISRDNAKNTVYLQMNSLKPEDTAVYYCAVGNKRDAYYQYSSYGYWGQGTQVTVSS | low polyreactivity
31 | QVQLVESGGGLVQAGGSLRLSCAASGFIFPYYAMGWYRQAPGKDRELVAAISQSGGSTYYADSVKGRFTISRDYAKNTVYLQMNSLKPEDTEVYYCAKFIPSYHDGDYWGQGTQVTVSS | low polyreactivity
32 | QVQLVESGGGLVQAGGSLRLSCAASGFIFPYYAMGWYRQAPGKERELVAAILTGGSTYYADSVKGRFTISRDNAKNTVYLQMNSLKAEDSAVYYCAARRKYDPNYYWGQGTQVTVSS | high polyreactivity
33 | QVQLVESGGGLVQAGGSLRLSCAASGFIFPYYAMGWYRQAPGKERELVATITSSGGSTYYADSVKGRFTISRDNAKNTVYLQMNSLKPEDTAVYYCAARRRYKYYGSRYDYWGQGTQVTVSS | high polyreactivity
34 | QVQLVESGGGLVQAGGSLRLSCAASGFIFQGYVMGRYRQAPGKVREFVAAISRSGGTTFYADSVKGRFTISRDNAKNPVYLQMNSLKPEDTAVYYCNRAPLGRPGYDYWGPGTQVTVSS | high polyreactivity
35 | QVQLVESGGGLVQAGGSLRLSCAASGFIFQKYAMGWYRQAPGKERELVAAITKRGGSTYYADSVKGRFTISRDNAKNTVYLQMNSLKPEDTAVYYCAAYAYDYEYDYWGQGTQVTVSS | high polyreactivity
36 | QVQLVESGGGLVQAGGSLRLSCAASGFIFQQNAMGWYRQAPAKERELVAAINRSGGSTNYADSVKGRFTISRDNAKNTVYLQMNSLKPEDTAVYYCATNGRSFVSKSTMYYWGQGTQVTVSS | high polyreactivity
37 | QVQLVESGGGLVQAGGSLRLSCAASGFIFQRYAMGWYRPAPGKERELVAAISWSGGSTSYADSVKGRFTISRDNAKNPVYLQMYSLKPVDTAVYYCAARRPVYRKYGDRGRWYNYWGQGTQVTVSS | high polyreactivity
38 | QVQLVESGGGLVQAGGSLRLSCAASGFIFQRYAMGWYRQAPGKERELVAAISWSGGITYYADSVKGRFTISRDNAKNTVYLQMHSLKPEDTAVYYCAAGLAVGDYYWGQGTQVTVSS | high polyreactivity
39 | QVQLVESGGGLVQAGGSLRLSCAASGFIFQSYAMGWYRQAPGKERELVAAISASGGRTYYADSVKGRFTISRDNAKNTVYLQMNSLKPEDNAVYYCNARPAGRGYNYWGQGTQVTVSS | high polyreactivity
40 | QVQLVESGGGLVQAGGSLRLSCAASGFIFQTNHMGWYRQAPGKERELVAAISSGDSTYYADSVKGRFTISRDNAKNTVYLQMNSLIPEDTAVYYCAADVLGTTTVGGFNYWGQGTQVTVSS | low polyreactivity
41 | QVQLVESGGGLVQAGGSLRLSCAASGFIFQYYAMGWFRQARGKERELVAAIRSGGSTYYADSVKGRFTISRDNAKNTFYLQLNSLKPEDTAVYFCGAKYRVFYGFDYWGQGTQVTVSS | high polyreactivity
42 | QVQLVESGGGLVQAGGSLRLSCAASGFIFQYYAMGWYRQAPGKERELVAVIRSGGSTYYADSVKGRFTISRDNAKNTVYLQMNSLKPEDTAVYYCARPSRGPPRGYYWGHGTQVTVSS | high polyreactivity
43 | QVQLVESGGGLVQAGGSLRLSCAASGFIFRDNAMGWYRQAPGKERELVAAISERGGRTYYADSVKGRFTISRDNEKNTVYLQMISLKPEDTAVYYCAAEDIANFYYWGQGTQVTVSS | high polyreactivity
